# Laboratory results taken from patent US20250011363A1, “OPTIMIZED SHORTENED PEPTIDE THAT BINDS TO ACETYLCHOLINE RECEPTOR, AND USE THEREOF” (SKINMED CO., LTD., priority 2021, published 2025).
# Biological target: acetylcholine receptor
# Assay: SPR, AchR immobilised on CM5 chip, peptide at 10 uM
row,Binder,Binding affinity (RU)
1,KRSFLR [6mer-1-414],153 RU
2,RICIR [5mer-1196],24 RU
3,RKWRCK [6mer-1-435],135 RU
4,RKLQYK [6mer-1-442],131 RU
5,RIKIK [5mer-893],18 RU
6,KRLRTR [6mer-1-407],153 RU
7,RHWEK [5mer-1195],19 RU
8,RKRFSR [6mer-1-448],141 RU
9,RYHWR [5mer-896],27 RU
10,RKKMK [5mer-891],24 RU
11,KRVVLR [6mer-1-428],139 RU
12,KKLFYK [6mer-1-436],148 RU
13,KDDAR [5mer-1197],24 RU
14,RRRIYR [6mer-1-424],135 RU
15,RMMFR [5mer-886],21 RU
16,RFSEK [5mer-1190],32 RU
17,KMSPR [5mer-894],18 RU
18,KPSGK [5mer-1188],30 RU
19,KKHFK [5mer-890],33 RU
20,KRVRQR [6mer-1-422],154 RU
21,RRQRRK [6mer-1-429],135 RU
22,KMWVK [5mer-1186],12 RU
23,RHCNR [5mer-885],19 RU
24,RAADK [5mer-1198],25 RU
25,RKQQYR [6mer-1-433],154 RU
26,RRVYYR [6mer-1-441],146 RU
27,RKPMR [5mer-892],29 RU

row,Binder,Binding affinity (RU)
1,KKCIR [5mer-888],31 RU
2,RKVVYK [6mer-1-450],151 RU
3,RKWFLK [6mer-1-437],131 RU
4,RKQFCR [6mer-1-413],148 RU
5,KRGFYR [6mer-1-419],148 RU
6,RKSVCK [6mer-1-417],139 RU
7,RRQRSR [6mer-1-411],121 RU
8,KRWVCR [6mer-1-434],137 RU
9,RRQVRK [6mer-1-418],123 RU
10,RRRFRR [6mer-1-431],144 RU
11,KRGRCK [6mer-1-449],135 RU
12,RMDWK [5mer-1191],30 RU
13,RYAKK [5mer-1192],28 RU
14,KFCER [5mer-897],30 RU
15,RFTKK [5mer-895],18 RU
16,KRWVLR [6mer-1-427],147 RU
17,KRGRSR [6mer-1-408],147 RU
18,KKQRQK [6mer-1-404],137 RU
19,RKVLYR [6mer-1-421],135 RU
20,RYCMR [5mer-898],20 RU
21,RKMDK [5mer-1189],11 RU
22,KKQLQK [6mer-1-430],144 RU
23,KKVQTR [6mer-1-1405],148 RU
24,KHWFK [5mer-1193],22 RU
25,RRRVLR [6mer-1-402],153 RU
26,RDNGK [5mer-1194],18 RU
27,RKLIYR [6mer-1-416],153 RU

row,Binder,Binding affinity (RU)
1,KKGQYR [6mer-1-426],131 RU
2,RKSILK [6mer-1-412],139 RU
3,RRRQQK [6mer-1-447],146 RU
4,KTPVR [5mer-887],30 RU
5,RKGVQK [6mer-1-425],131 RU
6,RKVLLR [6mer-1-406],153 RU
7,RRWISR [6mer-1-409],144 RU
8,RDSMK [5mer-1184],14 RU
9,KRRQTK [6mer-1-439],121 RU
10,RKGIQK [6mer-1-432],139 RU
11,KIWEK [5mer-884],28 RU
12,KKGQYK [6mer-1-420],148 RU
13,RRGVCR [6mer-1-415],135 RU
14,KRVYSK [6mer-1-440],153 RU
15,RRGYCK [6mer-1-423],147 RU
16,KRVLRK [6mer-1-410],148 RU
17,RRVIRR [6mer-1-446],124 RU
18,KRSQTK [6mer-1-403],153 RU
19,KRVRLR [6mer-1-445],145 RU
20,KPTGR [5mer-1185],30 RU
21,RKVLLK [6mer-1-443],145 RU
22,KTPGR [5mer-889],25 RU
23,KKWILK [6mer-1-444],144 RU
24,KHHIR [5mer-1187],27 RU
25,RRGFQK [6mer-1-438],142 RU
